Data: US20020164620

Experiments:
[1] = target: T1, SCC1-myc (in vitro translated human SCC1 with myc tag) (UniProt O60216)
T1 sequence: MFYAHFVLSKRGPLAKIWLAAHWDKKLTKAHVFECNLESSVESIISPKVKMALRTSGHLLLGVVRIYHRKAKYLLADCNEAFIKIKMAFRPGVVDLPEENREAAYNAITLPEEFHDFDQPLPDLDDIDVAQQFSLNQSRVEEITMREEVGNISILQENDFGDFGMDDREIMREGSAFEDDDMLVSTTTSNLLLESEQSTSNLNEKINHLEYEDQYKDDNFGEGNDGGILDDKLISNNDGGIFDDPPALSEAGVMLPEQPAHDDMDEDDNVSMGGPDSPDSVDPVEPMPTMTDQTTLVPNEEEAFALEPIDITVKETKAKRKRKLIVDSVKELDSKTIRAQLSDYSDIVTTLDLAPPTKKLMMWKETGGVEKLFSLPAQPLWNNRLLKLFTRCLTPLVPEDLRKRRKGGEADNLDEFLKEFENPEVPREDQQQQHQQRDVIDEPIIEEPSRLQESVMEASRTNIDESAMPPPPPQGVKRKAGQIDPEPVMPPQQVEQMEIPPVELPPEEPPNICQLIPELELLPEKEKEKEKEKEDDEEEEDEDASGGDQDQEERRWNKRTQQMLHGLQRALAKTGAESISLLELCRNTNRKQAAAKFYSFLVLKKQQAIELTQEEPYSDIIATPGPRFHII

[2] = tested on: T2, Bio-SVEQGR-amk
T2 sequence: SVEQGR

[3] = tested on: separase-myc (in vitro translated separase construct with one myc epitope at its C-terminus)
[4] = target: T3, recombinant human securin, wildtype, expressed in E. coli (UniProt O95997)
T3 sequence: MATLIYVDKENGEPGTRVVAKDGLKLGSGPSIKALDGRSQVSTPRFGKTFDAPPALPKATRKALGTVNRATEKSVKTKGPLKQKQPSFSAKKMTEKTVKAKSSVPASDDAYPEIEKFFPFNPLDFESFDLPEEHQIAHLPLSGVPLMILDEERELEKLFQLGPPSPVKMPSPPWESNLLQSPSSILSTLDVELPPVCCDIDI

[5] = tested on: T4, Bio-SVEQGR-cmk
T4 sequence: SVEQGR

[6] = target: T5, destruction box deleted form of securin (UniProt O95997)
T5 sequence: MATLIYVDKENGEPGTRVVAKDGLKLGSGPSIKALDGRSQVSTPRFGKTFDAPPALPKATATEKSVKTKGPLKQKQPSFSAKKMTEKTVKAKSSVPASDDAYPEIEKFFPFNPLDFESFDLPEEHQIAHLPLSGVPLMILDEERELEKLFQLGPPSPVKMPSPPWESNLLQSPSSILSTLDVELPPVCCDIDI

Substance | cleavage of SCC1-myc (anti-myc immunoblot, FIG. 6B) [1] | cleavage of SCC1-myc (anti-myc immunoblot) [1] | cleavage of SCC1-myc by separase (anti-myc immunoblot) [2] | cleavage of SCC1-myc by separase (anti-myc immunoblot, FIG. 4C lane 2i) [2] | cleavage of SCC1-myc by separase (anti-myc immunoblot, FIG. 4C lane 3i) [2] | cleavage of in vitro translated separase-myc (anti-myc immunoblot, FIG. 5) [3] | cleavage of SCC1-myc by separase (anti-myc immunoblot) [4] | cleavage of SCC1-myc by separase (anti-myc immunoblot) [5] | cleavage of SCC1-myc by separase (anti-myc immunoblot) [6]
N-terminally FLAG-tagged full length human separase expressed in HeLa cells, anti-FLAG immunoprecipitate activated in mitotic Xenopus egg extract | ectopically expressed separase is able to cleave human SCC1 |  |  |  |  |  |  |  | 
cleaved form of human separase (separase immunoprecipitate from nocodazole-arrested HeLa cells, activated in mitotic Xenopus egg extract) |  | it is the cleaved form of separase that is the active protease which cleaves SCC1, unless it is inhibited by the rebinding of securin | both inhibitors are able to block the ability of separase to cleave SCC1 | separase was unable to cleave SCC1 | This treatment inhibited SCC1 cleavage by separase | in vitro translated separase was cleaved when it was incubated with active separase obtained by incubation of separase immunoprecipitates in mitotic Xenopus egg extracts | no cleavage of SCC1 was detected | both inhibitors are able to block the ability of separase to cleave SCC1 | Identical results were obtained with two different forms of securin, the wildtype protein (WT-securin) and a form that can not be destroyed by ubiquitin-dependent proteolysis (DB-securin
